# Results from patent publication US10251952B2, “Humanized anti-tau(pS422) antibody brain shuttles and use thereof” (Hoffmann-La Roche Inc., priority 2014, dated 2019).
# Square brackets hold non-standard residues; d marks the D form. Ends that are not written are not given here. NMeR = CN[C@@H](CCCNC(=N)N)C(=O)O; Pqa = not defined here
# Key:
# [1] = biological target: T1, NPY2R (Homo sapiens, UniProt P49146); test: effect on the Y2Receptor family
# T1 sequence (P49146 1-381): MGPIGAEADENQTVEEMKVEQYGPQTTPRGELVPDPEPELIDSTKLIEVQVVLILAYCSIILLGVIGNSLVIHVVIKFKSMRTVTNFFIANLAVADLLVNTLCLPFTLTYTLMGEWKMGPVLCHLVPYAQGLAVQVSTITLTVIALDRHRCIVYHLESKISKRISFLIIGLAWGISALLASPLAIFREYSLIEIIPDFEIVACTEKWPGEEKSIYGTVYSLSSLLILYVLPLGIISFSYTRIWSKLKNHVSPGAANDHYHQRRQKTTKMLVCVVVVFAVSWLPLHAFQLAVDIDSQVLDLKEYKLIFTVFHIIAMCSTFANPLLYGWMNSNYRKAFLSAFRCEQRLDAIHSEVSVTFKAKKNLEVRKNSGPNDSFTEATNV
# [2] = biological target: T2, NPY1R (Homo sapiens, UniProt P25929); test: effect on the Y2Receptor family
# T2 sequence (P25929 1-384): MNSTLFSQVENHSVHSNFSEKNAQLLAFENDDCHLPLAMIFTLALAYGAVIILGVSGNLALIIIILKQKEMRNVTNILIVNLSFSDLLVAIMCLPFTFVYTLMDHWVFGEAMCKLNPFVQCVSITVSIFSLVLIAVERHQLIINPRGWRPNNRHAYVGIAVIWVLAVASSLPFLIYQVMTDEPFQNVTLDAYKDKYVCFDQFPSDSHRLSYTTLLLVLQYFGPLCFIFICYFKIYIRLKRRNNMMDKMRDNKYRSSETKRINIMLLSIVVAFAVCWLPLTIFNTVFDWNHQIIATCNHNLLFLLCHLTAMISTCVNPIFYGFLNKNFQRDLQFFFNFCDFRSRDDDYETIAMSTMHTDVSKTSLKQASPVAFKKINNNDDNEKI
# [3] = biological target: NPY4R (Homo sapiens, UniProt P50391); test: effect on the Y2Receptor family
# Chain of NPY4R (P50391 whole entry, species assumed): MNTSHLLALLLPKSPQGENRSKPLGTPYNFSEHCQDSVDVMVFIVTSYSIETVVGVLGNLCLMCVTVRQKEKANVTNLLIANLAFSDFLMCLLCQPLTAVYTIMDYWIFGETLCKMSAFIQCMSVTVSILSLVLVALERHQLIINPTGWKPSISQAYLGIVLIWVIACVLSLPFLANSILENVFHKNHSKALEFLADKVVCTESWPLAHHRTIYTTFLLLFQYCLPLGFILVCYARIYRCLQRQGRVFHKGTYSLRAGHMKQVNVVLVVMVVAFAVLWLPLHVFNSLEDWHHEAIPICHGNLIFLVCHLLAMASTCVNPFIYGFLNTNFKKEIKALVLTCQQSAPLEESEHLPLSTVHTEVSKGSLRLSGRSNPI
# [4] = biological target: T3, NPY5R (Homo sapiens, UniProt Q15761); test: effect on the Y2Receptor family
# T3 sequence (Q15761 1-445): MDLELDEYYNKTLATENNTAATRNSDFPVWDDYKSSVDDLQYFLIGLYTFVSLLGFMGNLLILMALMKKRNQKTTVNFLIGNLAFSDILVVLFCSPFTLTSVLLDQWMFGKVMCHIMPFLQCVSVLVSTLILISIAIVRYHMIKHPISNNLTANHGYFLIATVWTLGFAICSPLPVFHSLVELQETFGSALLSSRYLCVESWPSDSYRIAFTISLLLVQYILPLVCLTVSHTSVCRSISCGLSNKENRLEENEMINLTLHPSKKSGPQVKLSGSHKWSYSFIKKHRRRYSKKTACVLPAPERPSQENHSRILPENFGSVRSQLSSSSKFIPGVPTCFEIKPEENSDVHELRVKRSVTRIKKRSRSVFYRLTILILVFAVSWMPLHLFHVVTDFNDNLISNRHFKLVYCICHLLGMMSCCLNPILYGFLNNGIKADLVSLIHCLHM
# [5] = biological target: anti-HeliCar motif amino acid sequence antibody; test: binding of PYY peptides to anti-HeliCar motif antibody
NPY2R [1] [nM],NPY1R [2],NPY4R [3],NPY5R [4],Kd [5] [nM],Substance
1.0,inactive,inactive,inactive,,"Ac-Ile-Lys-Pqa-Arg-His-Tyr-Leu-Asn-Trp-Val-Thr-Arg-Gln-(NMe)-Arg-Try-NH2 * 4 HOAc (Ac-IK[Pqa]RHYLNWVTRQ[NMeR]Y-NH2; reading uncertain; also: salt: 4 HOAc, printed as Ac-Ile-Lys-Pqa-Arg-His-Tyr-Leu-Asn-Trp-Val-Thr-Arg-Gln-(NMe)-Arg-Try-NH2 * 4 HOAc) [reference compound]"
6.38,,inactive,inactive,12,IKPEAPGEDASPEAHLANEVARLHYLNLVTRQRY-NH2 [PYY_HeliCar]
